In patent US20030158083A1, “Method of effecting angiogenesis by modulating the function of a novel endothelia phosphatase” (The Procter & Gamble Company, priority 2002, published 2003):

Key:
[1] = Peptide phosphatase assay (BIOMOL green); type: biochemical; conditions: any peptide substrates examined; data not shown
VEGF receptor-2 [2] = target: T1, VEGF receptor-2 (Homo sapiens, UniProt P35968); assay: Dephosphorylation of 32P-labeled VEGF receptor-2; type: biochemical; conditions: incubated overnight; data not shown
T1 construct: Co-immunoprecipitation of full-length KAPh with full-length VEGF receptor-2; expressed in transfected cells

[3] = target: T2, human VEGF receptor-2 (KDR) (Homo sapiens, UniProt P35968); assay: GST pull-down association assay, VEGFR2; type: binding; conditions: HEK 293 lysate expressing His-tagged protein; Western blot
T2 construct: the intracellular domain of each receptor tyrosine kinase was generated as an in-frame GST fusion; made in house; host or cells: Sf9 insect cells (baculovirus)

[4] = target: T3, human VEGF receptor-2 (KDR) (Homo sapiens, UniProt P35968, Y1175F); assay: GST pull-down association assay, VEGFR2; type: binding; conditions: GST fusion Y1175F versus wild-type
T3 construct: the intracellular domain of each receptor tyrosine kinase was generated as an in-frame GST fusion; made in house; host or cells: Sf9 insect cells (baculovirus)

[5] = target: T4, human VEGF receptor-2 (KDR) (Homo sapiens, UniProt P35968, Y951F); assay: GST pull-down association assay, VEGFR2; type: binding; conditions: GST fusion Y951F versus wild-type
T4 construct: the intracellular domain of each receptor tyrosine kinase was generated as an in-frame GST fusion; made in house; host or cells: Sf9 insect cells (baculovirus)

human VEGF receptor-1 = target: T5, human VEGF receptor-1 (Homo sapiens, UniProt P17948); assay: GST pull-down association assay, VEGFR-1; type: binding; conditions: HEK 293 lysate expressing His-tagged full-length KAPh
T5 construct: the intracellular domain of each receptor tyrosine kinase was generated as an in-frame GST fusion; made in house; host or cells: Sf9 insect cells (baculovirus)
T5 sequence (P17948 781-1338 limits assumed): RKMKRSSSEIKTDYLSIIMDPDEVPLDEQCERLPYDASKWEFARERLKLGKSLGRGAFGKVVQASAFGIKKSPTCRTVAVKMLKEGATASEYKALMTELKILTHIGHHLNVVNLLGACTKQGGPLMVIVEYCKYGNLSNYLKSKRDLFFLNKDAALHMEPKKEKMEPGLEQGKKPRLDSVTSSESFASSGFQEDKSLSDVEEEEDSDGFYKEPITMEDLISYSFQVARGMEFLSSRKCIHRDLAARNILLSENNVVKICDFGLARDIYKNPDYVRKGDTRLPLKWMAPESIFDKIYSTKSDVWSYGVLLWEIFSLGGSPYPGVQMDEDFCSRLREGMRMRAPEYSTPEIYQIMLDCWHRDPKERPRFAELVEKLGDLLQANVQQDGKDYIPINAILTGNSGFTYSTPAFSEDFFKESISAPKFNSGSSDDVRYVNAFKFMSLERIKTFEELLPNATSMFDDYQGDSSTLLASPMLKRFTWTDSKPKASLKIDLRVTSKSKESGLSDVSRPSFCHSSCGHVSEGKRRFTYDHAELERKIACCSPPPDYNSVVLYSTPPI
Excerpt: Recombinant VEGFR-1 kinase (wild-type and K862R mutant), VEGFR2 kinase (wild-type and K870R mutant), Tie1 kinase (wild-type and K871R mutant), and Tie2 kinase (wild-type and K856R mutant) were expressed as glutathione S-transferase (GST) fusion proteins in Sf9 cells using a baculovirus expression system. Briefly, the intracellular domain of each receptor tyrosine kinase was generated as an in-frame GST fusion using the pAcGHLT baculovirus transfer vector (Pharmingen, San Diego, Calif.). Each baculovirus transfer vector construct was cotransfected with BaculoGold (Pharmingen, San Diego, Calif.) linearized AcNPV baculovirus DNA into Sf9 cells for the generation of recombinant baculoviruses. Five days post-transfection, recombinant baculoviruses were harvested and amplified by re-infection of Sf9 cells. Each amplified baculovirus was then used to infect Sf9 cells for the expression of the recombinant kinases. […]
The immobilized, autophosphorylated kinases were then incubated with HEK 293 cell lysates which overexpressed either the KAPh SH2 domain or KAPh full-length protein. […] KAPh protein that associated with the recombinant kinases was analyzed by Western blot using a chemiluminescence detection system (Amersham Pharmacia, Piscataway, N.J.).

VEGF receptor-2 [6] = target: T1, VEGF receptor-2; assay: Co-immunoprecipitation with VEGF receptor-2 in HEK 293 cells; type: cell-based; conditions: HEK 293 VEGFR2 stable cells, 1 nM VEGF 5 min or untreated, anti-VEGFR2 IP
Method: Human umbilical vein endothelial cells (HUVEC) obtained from Clonetics (Walkersville, Md.) were cultured in endothelial growth medium (Clonetics) and were used up to passage 3. HEK 293 cells obtained from the American Type Culture Collection (Manasses, Va.) were cultured in cell growth medium (Dulbecco's modified Eagle's medium supplemented with 10% fetal bovine serum, 1% L-glutamine, 1% nonessential amino acids, and 1% antimycotics). For stable expression, hVEGFR2 was subcloned into pLNCX (Clontech, Palo Alto, Calif.), […] transfected into HEK 293 cells, and selected in the presence of Geneticin. The HEK 293 VEGFR2 clonal cell line was transiently transfected with either the SH2 domain or full-length KAPh in the mammalian expression vector pcDNA4/HisMax (Invitrogen, Carlsbad, Calif.). All constructs were transfected using LipofectAMINE PLUS (Life Technologies, Rockville, Md.) in serum-free DMEM according to the manufacturer's instructions.
HEK 293 cells that stably expressed the VEGF receptor-2 were transiently transfected to express the KAPh SH2 domain or full-length KAPh were treated with 1 nM VEGF or left untreated for 5 min. The cells were lysed in 1% triton lysis buffer with protease inhibitors. Insoluble debris was removed from the lysates by centrifugation at 14,000×g for 10 min at 4° C. […]

T1 sequence (P35968 20-1356): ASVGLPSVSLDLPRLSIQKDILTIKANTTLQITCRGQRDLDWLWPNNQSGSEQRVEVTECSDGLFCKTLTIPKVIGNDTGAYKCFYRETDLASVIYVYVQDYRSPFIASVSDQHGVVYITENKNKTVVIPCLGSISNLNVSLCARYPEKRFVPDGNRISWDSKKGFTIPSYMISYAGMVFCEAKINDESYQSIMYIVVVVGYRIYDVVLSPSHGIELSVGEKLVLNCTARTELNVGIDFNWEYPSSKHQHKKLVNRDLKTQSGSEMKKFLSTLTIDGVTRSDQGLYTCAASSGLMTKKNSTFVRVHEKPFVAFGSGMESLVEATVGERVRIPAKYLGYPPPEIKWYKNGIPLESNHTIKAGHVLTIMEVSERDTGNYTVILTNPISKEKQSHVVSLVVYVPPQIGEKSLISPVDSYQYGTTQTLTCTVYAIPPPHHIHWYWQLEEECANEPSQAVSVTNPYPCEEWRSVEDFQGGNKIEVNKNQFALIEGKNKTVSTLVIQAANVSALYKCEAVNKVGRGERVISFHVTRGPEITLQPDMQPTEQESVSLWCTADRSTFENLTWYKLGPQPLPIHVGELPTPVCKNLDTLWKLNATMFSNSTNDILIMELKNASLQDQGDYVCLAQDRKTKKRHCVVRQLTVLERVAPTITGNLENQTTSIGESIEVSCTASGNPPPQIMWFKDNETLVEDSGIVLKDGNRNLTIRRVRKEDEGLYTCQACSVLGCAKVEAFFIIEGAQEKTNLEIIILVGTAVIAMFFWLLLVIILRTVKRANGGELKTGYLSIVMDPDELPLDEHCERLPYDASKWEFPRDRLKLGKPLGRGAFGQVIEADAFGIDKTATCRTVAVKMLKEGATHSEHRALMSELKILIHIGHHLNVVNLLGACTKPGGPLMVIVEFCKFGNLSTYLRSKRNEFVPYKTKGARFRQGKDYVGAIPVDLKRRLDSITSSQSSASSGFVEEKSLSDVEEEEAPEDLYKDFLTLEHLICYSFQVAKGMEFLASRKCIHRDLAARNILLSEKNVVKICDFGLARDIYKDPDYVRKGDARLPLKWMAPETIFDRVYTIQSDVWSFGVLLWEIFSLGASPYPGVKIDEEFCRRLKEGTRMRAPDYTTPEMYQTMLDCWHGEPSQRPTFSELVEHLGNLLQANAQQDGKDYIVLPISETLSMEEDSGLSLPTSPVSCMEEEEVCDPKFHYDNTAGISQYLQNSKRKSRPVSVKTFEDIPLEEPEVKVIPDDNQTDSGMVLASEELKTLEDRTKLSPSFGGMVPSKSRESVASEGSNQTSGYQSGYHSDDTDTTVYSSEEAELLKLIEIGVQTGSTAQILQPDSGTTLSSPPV
T3 sequence (P35968 790-1356 Y1175F): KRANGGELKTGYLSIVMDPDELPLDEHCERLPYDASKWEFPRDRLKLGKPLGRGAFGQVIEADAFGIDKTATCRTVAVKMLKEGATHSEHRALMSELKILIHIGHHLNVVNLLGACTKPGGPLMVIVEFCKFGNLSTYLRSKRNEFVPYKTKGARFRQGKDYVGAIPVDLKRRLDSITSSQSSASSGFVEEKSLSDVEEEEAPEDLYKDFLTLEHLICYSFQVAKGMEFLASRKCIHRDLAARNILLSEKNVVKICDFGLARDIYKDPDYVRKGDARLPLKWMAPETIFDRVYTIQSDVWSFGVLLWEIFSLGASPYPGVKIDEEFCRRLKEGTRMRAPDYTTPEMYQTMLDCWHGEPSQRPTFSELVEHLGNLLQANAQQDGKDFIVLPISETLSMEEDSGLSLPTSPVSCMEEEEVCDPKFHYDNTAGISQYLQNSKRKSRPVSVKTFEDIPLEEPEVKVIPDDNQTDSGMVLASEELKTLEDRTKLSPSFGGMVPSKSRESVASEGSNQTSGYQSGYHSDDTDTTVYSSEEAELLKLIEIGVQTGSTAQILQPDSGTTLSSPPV
T4 sequence (P35968 790-1356 Y951F): as the sequence (P35968 790-1356 Y1175F) above, with Y162F, F386Y counted along it
T2 sequence (P35968 790-1356): as the sequence (P35968 790-1356 Y1175F) above, with F386Y counted along it

B1: KAPh: novel human KDR Associated Phosphatase protein, full-length sequence SEQ ID NOS 1 and 2 (protein, listed as Homo sapiens)
chain: MKPRKAEPHSFREKVFRKKPPVCAVCKVTIDGTGVSCRVCKVATHRKCEAKVTSACQALPPVELRRNTAPVRRIEHLGSTKSLNHSKQRSTLPRSFSLDPLMERRWDLDLTYVTERILAAAFPARPDEQRHRGHLRELAHVLQSKHRDKYLLFNLSEKRHDLTRLNPKVQDFGWPELHAPPLDKLCSICKAMETWLSADPQHVVVLYCKGNKGKLGVIVSAYMHYSKISAGADQALATLTMRKFCEDKVATELQPSQRRYISYFSGLLSGSIRMNSSPLFLHYVLIPMLPAFEPGTGFQPFLKIYQSMQLVYTSGVYHIAGPGPQQLCISLEPALLLKGDVMVTCYHKGGRGTDRTLVFRVQFHTCTIHGPQLTFPKDQLDEAWTDERFPFQASVEFVFSSSPEKIKGSTPRNDPSVSVDYNTTEPAVRWDSYENFNQHHEDSVDGSLTHTRGPLDGSPYAQVQRPPRQTPPAPSPEPPPPPMLSVSSDSGHSSTLTTEPAAESPGRPPPTAAERQELDRLLGGCGVASGGRGAGRETAILDDEEQPTVGGGPHLGVYPGHRPGLSRHCSCRQGYREPCGVPNGGYYRPEGTLERRRLAYGGYEGSPQGYAEASMEKRRLCRSLSEGLYPYPPEMGKPATGDFGYRAPGYREVVILEDPGLPALYPCPACEEKLALPTAALYGLRLEREAGEGWASEAGKPLLHPVRPGHPLPLLLPACGHHHAPMPDYSCLKPPKAGEEGHEGCSYTMCPEGRYGHPGYPALVTYSYGGAVPSYCPAYGRVPHSCGSPGEGRGYPSPGAHSPRAGSISPGSPPYPQSRKLSYEIPTEEGGDRYPLPGHLASAGPLASAESLEPVSWREGPSGHSTLPRSPRDAPCSASSELSGPSTPLHTSSPVQGKESTRRQDTRSPTSAPTQRLSPGEALPPVSQAGTGKAPELPSGSGPEPLAPSPVSPTFPPSSPSDWPQERSPGGHSDGASPRSPVPTTLPGLRHAPWQGPRGPPDSPDGSPLTPVPSQMPWLVASPEPPQSSPTPAFPLAASYDTNGLSQPPLPEKRHLPGPGQQPGPWGPEQASSPARGISHHVTFAPLLSDNVPQTPEPPTQESQSNVKFVQDTSKFWYKPHLSRDQAIALLKDKDPGAFLIRDSHSFQGAYGLALKVATPPPSAQPWKGDPVEQLVRHFLIETGPKGVKIKGCPSEPYFGSLSALVSQHSISPISLPCCLRILSKDPLEETPEAPVPTNMSTAADLLRQGAACSVLYLTSVETESLTGPQAVARASSAALSCSPRPTPAVVHFKVSAQGITLTDNQRKLFFRRHYPVNSITFSSTDPQDRRWTNPDGTTSKIFGFVAKKPGSPWENVCHLFAELDPDQPAGAIVTFITKVLLGQRK
What does the source list for B1?
phosphatase activity using peptide substrates [1]: unable to detect significant, reproducible phosphatase activity; change in phosphorylation of 32P-labeled VEGF receptor-2 (VEGF receptor-2 [2]): unable to detect a change in phosphorylation; interaction with GST VEGFR2, wild-type versus catalytically inactive K870R [3]: interacted in an autophosphorylation-dependent manner; interaction with VEGFR2 Y1175F mutant [4]: nearly abolished; association with VEGFR2 Y951F mutant [5]: no significant change in association; interaction with GST VEGFR-1, wild-type versus K862R (human VEGF receptor-1): weak, but reproducible, autophosphorylation-dependent interaction; co-immunoprecipitation with VEGFR2 (VEGF receptor-2 [6]): detected in cells stimulated with VEGF
